Test results as given in the RNAGym collection of RNA variant scans (doi:10.1073/pnas.2313332121).

B1: TPR t1 (parent)
chain: GACCAAUCUGCCCUCAGAGCUCGAGAACAUCUUCGGAUGCAGAGGAGGCAGGCUUCGGUGGCGCGAUAGCGCCAACGUCCUCAACCUCCAAUGCAUCCCACCACAUGAUGAUGCCUGAAGAGCCUUGGUUUUUUG

Variants of: B1
Test: polymerase ribozyme fitness, log enrichment relative to wild type (log ratio); higher = more active; in vitro selection for triplet polymerase activity
Outline: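 PCR was used to build mutant libraries for each subunit of a heterodimeric triplet polymerase ribozyme, which were then transcribed. A single in vitro selection round, in triplicate, used a frozen incubation at −7 °C and recovered extended constructs by gel excision, streptavidin beads and RT-PCR. Fitness is the logarithm of genotype enrichment relative to wild-type enrichment, averaged over replicates with inverse-variance weights. The logarithm is base 2, and after Illumina sequencing only genotypes with ≥10 input reads and ≥1 read per output were kept.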
In the case of A6C G63A U87G C88A, the “polymerase ribozyme fitness (log ratio)” value is reported as -1.25.
With A5U C88G G117A G120C the “polymerase ribozyme fitness (log ratio)” value was -4.11.
In the case of A6G G36U C80U C88U G110C C124U, the “polymerase ribozyme fitness (log ratio)” value is reported as -5.65.
For A6C C104A, the “polymerase ribozyme fitness (log ratio)” value was -1.61.
With A5U U33C the “polymerase ribozyme fitness (log ratio)” value was -3.68.
In the case of A5U C40A C115G G120A, the “polymerase ribozyme fitness (log ratio)” value is reported as -3.72.
With A5U G51A the “polymerase ribozyme fitness (log ratio)” value was -3.23.
With A6U C12A U78A C80U C86A G120A the “polymerase ribozyme fitness (log ratio)” value was -3.45.
With A6U C53G C99U the “polymerase ribozyme fitness (log ratio)” value was -4.03.
With A6G G19U C70U the “polymerase ribozyme fitness (log ratio)” value was -4.25.
In the case of A5U G120U, the “polymerase ribozyme fitness (log ratio)” value is reported as 0.128.
With A5U G48U C56U G93A the “polymerase ribozyme fitness (log ratio)” value was -0.937.
With A6U C22A the “polymerase ribozyme fitness (log ratio)” value was -4.95.
With A5U G39U G47C C72U the “polymerase ribozyme fitness (log ratio)” value was -4.21.
For A6U C34A, the “polymerase ribozyme fitness (log ratio)” value was -1.85.
For A6U G44U G52C G69A A121C, the “polymerase ribozyme fitness (log ratio)” value was -4.22.
With A6U G60A C97G A111G U125A G135A the “polymerase ribozyme fitness (log ratio)” value was -6.23.
In the case of A6G G48U G63A, the “polymerase ribozyme fitness (log ratio)” value is reported as -0.619.
With A6U A121C the “polymerase ribozyme fitness (log ratio)” value was 1.91.
With A6G C11G A118U the “polymerase ribozyme fitness (log ratio)” value was 0.0523.
With A6G C8G C12A C28A C56G U81C U112A the “polymerase ribozyme fitness (log ratio)” value was -4.51.
In the case of A5U C73A, the “polymerase ribozyme fitness (log ratio)” value is reported as -0.847.
For A6C C13G G17A A18G, the “polymerase ribozyme fitness (log ratio)” value was -4.66.
For A6C C94U U106A G113C U126C U133G, the “polymerase ribozyme fitness (log ratio)” value was -4.12.
In the case of A6G G39A A68G C86U G117A, the “polymerase ribozyme fitness (log ratio)” value is reported as -5.73.
For A6U A27U U81A, the “polymerase ribozyme fitness (log ratio)” value was -3.93.
With A5U C12U U125A the “polymerase ribozyme fitness (log ratio)” value was -0.727.
In the case of A6U C11G G69U U125G, the “polymerase ribozyme fitness (log ratio)” value is reported as -1.05.
For A5U G52U U112G, the “polymerase ribozyme fitness (log ratio)” value was -0.382.
In the case of A6U G42U C49U C101U G110U C123G, the “polymerase ribozyme fitness (log ratio)” value is reported as -6.14.
With A6U A37G G71A the “polymerase ribozyme fitness (log ratio)” value was -0.537.
For A6C G61U U92C U129C, the “polymerase ribozyme fitness (log ratio)” value was -2.43.
With A6C A43G U78G A91G the “polymerase ribozyme fitness (log ratio)” value was -2.53.
With A6U A46G C70U U133A the “polymerase ribozyme fitness (log ratio)” value was -1.52.
In the case of A5U G61U, the “polymerase ribozyme fitness (log ratio)” value is reported as -0.313.
With A6C A37U G47U G52U G63C C124U the “polymerase ribozyme fitness (log ratio)” value was -4.06.
For A6U U9G A27U C34A G44U C64U, the “polymerase ribozyme fitness (log ratio)” value was -6.87.
For A6C C8A G60A U87A, the “polymerase ribozyme fitness (log ratio)” value was -0.0712.
For A6U C11G G69U C76A U125G, the “polymerase ribozyme fitness (log ratio)” value was -2.63.
For A6U C11U A46C G51C G57U A121C, the “polymerase ribozyme fitness (log ratio)” value was -2.71.
For A6G A46U, the “polymerase ribozyme fitness (log ratio)” value was -1.37.
In the case of A6C A18U G52C C79U C89U C101U, the “polymerase ribozyme fitness (log ratio)” value is reported as -2.96.
In the case of A5G U112A G127U, the “polymerase ribozyme fitness (log ratio)” value is reported as 0.804.
With A6U A50U G57C A75U the “polymerase ribozyme fitness (log ratio)” value was -0.743.
With A6U G45U G52C G69C C72U G122A the “polymerase ribozyme fitness (log ratio)” value was -3.45.
With A5U G71C U106G the “polymerase ribozyme fitness (log ratio)” value was -3.95.
For A5U C8A, the “polymerase ribozyme fitness (log ratio)” value was 0.0555.
For A6C C70U, the “polymerase ribozyme fitness (log ratio)” value was -0.65.
With A6C C70G the “polymerase ribozyme fitness (log ratio)” value was -2.95.
With A6U G63U the “polymerase ribozyme fitness (log ratio)” value was -1.06.
With A5U C114A G122U the “polymerase ribozyme fitness (log ratio)” value was -1.76.
With A6G G69U G120U the “polymerase ribozyme fitness (log ratio)” value was 0.637.
In the case of A5G G48C G63A G117C, the “polymerase ribozyme fitness (log ratio)” value is reported as -6.49.
For A5U C53A C62A G110U U130C, the “polymerase ribozyme fitness (log ratio)” value was -4.41.
With A5U A6G A46C G61A C115G the “polymerase ribozyme fitness (log ratio)” value was -2.35.
In the case of A6C C72G U87A U112A G113U G117C U130G, the “polymerase ribozyme fitness (log ratio)” value is reported as -5.39.
For A6U C12A A103U, the “polymerase ribozyme fitness (log ratio)” value was -4.89.
With A6U G71C G120C C123G the “polymerase ribozyme fitness (log ratio)” value was -0.502.
With A5U A95U the “polymerase ribozyme fitness (log ratio)” value was -1.24.
For A6G C31A C64U C89G C123G, the “polymerase ribozyme fitness (log ratio)” value was -6.4.
For A5U U32C C124G G128U, the “polymerase ribozyme fitness (log ratio)” value was -0.425.
For A6U C80A U87A, the “polymerase ribozyme fitness (log ratio)” value was -2.6.
With A5U A29C U78G C101U the “polymerase ribozyme fitness (log ratio)” value was -3.29.
In the case of A6C G48U U87C G110U, the “polymerase ribozyme fitness (log ratio)” value is reported as -2.
In the case of A6U A41U G61A C62G U112A, the “polymerase ribozyme fitness (log ratio)” value is reported as -6.58.
With A5U A6C G47A the “polymerase ribozyme fitness (log ratio)” value was -1.7.
With A5U C72U G128U the “polymerase ribozyme fitness (log ratio)” value was -2.15.
In the case of A5G G48U C73A C97A, the “polymerase ribozyme fitness (log ratio)” value is reported as -5.81.
For A5G U32C C40U C99U A100U, the “polymerase ribozyme fitness (log ratio)” value was -5.33.
For A6U G110A, the “polymerase ribozyme fitness (log ratio)” value was -0.89.
With A5U U96A the “polymerase ribozyme fitness (log ratio)” value was -0.893.
With A5U C11A G42C C88U U106A A121C U125A the “polymerase ribozyme fitness (log ratio)” value was -1.65.
With A6G U9C C13G G61C C89U A90U C94U A105U A121G the “polymerase ribozyme fitness (log ratio)” value was -5.89.
In the case of A6C U30G G63A A91U A100G C104G U109G, the “polymerase ribozyme fitness (log ratio)” value is reported as -5.44.
With A5U G71C the “polymerase ribozyme fitness (log ratio)” value was -2.73.
For A6U C40U, the “polymerase ribozyme fitness (log ratio)” value was 0.421.
For A5U C12U U78C C80U, the “polymerase ribozyme fitness (log ratio)” value was -1.23.
For A6C G93A, the “polymerase ribozyme fitness (log ratio)” value was -1.25.
In the case of A6U C53U U54G G93U U106A U129A, the “polymerase ribozyme fitness (log ratio)” value is reported as -2.14.
For A5U G19A G57U U78G G113U G135U, the “polymerase ribozyme fitness (log ratio)” value was -4.71.
For A6U G60U C115A G117U, the “polymerase ribozyme fitness (log ratio)” value was -4.41.
With A6C C40G C56G the “polymerase ribozyme fitness (log ratio)” value was -2.36.
With A5G G44U G52A the “polymerase ribozyme fitness (log ratio)” value was -2.
